B3: MBP-TRAK1_(342-431) (domain or fragment, human, UniProt Q9UPV9 342-431, looked up)
chain: EAQEELKNLRNKTMPNTTSRRYHSLGLFPMDSLAAEIEGTMRKELQLEEAESPDITHQKRVFETVRNINQVVKQRSLTPSPMNIPGSNQS
notes: GCN4 of m5 replaced with MBP; Cloned into pMAL-c6T; source: E. coli ArcticExpress(DE3), purified (amylose, Strep-Tactin); not shown: MBP, N-terminal, kept
B6: MIRO1_(1-591) (domain or fragment, human, UniProt Q8IXI2 1-591, looked up)
chain: MKKDVRILLVGEPRVGKTSLIMSLVSEEFPEEVPPRAEEITIPADVTPERVPTHIVDYSEAEQSDEQLHQEISQANVICIVYAVNNKHSIDKVTSRWIPLINERTDKDSRLPLILVGNKSDLVEYSSMETILPIMNQYTEIETCVECSAKNLKNISELFYYAQKAVLHPTGPLYCPEEKEMKPACIKALTRIFKISDQDNDGTLNDAELNFFQRICFNTPLAPQALEDVKNVVRKHISDGVADSGLTLKGFLFLHTLFIQRGRHETTWTVLRRFGYDDDLDLTPEYLFPLLKIPPDCTTELNHHAYLFLQSTFDKHDLDRDCALSPDELKDLFKVFPYIPWGPDVNNTVCTNERGWITYQGFLSQWTLTTYLDVQRCLEYLGYLGYSILTEQESQASAVTVTRDKKIDLQKKQTQRNVFRCNVIGVKNCGKSGVLQALLGRNLMRQKKIREDHKSYYAINTVYVYGQEKYLLLHDISESEFLTEAEIICDVVCLVYDVSNPKSFEYCARIFKQHFMDSRIPCLIVAAKSDLHEVKQEYSISPTDFCRKHKMPPPQAFTCNTADAPSKDIFVKLTTMAMYPHVTQADLKSST
notes: Cloned into pRSFDuet-1; also called mitochondrial Rho GTPase 1, near full-length construct lacking the C-terminal transmembrane helix; source: E. coli ArcticExpress(DE3), purified (Ni-NTA, Strep-Tactin)
B7: MIRO1_(177-591) (domain or fragment, human, UniProt Q8IXI2 177-591, looked up)
chain: EEKEMKPACIKALTRIFKISDQDNDGTLNDAELNFFQRICFNTPLAPQALEDVKNVVRKHISDGVADSGLTLKGFLFLHTLFIQRGRHETTWTVLRRFGYDDDLDLTPEYLFPLLKIPPDCTTELNHHAYLFLQSTFDKHDLDRDCALSPDELKDLFKVFPYIPWGPDVNNTVCTNERGWITYQGFLSQWTLTTYLDVQRCLEYLGYLGYSILTEQESQASAVTVTRDKKIDLQKKQTQRNVFRCNVIGVKNCGKSGVLQALLGRNLMRQKKIREDHKSYYAINTVYVYGQEKYLLLHDISESEFLTEAEIICDVVCLVYDVSNPKSFEYCARIFKQHFMDSRIPCLIVAAKSDLHEVKQEYSISPTDFCRKHKMPPPQAFTCNTADAPSKDIFVKLTTMAMYPHVTQADLKSST
notes: Cloned into pETDuet-1; As purified it held 37.0% GDP and 63.0% GTP; samples exchanged with GDP or GTP were also used; also called MIRO1 EF-hands and cGTPase; source: E. coli ArcticExpress(DE3), purified (Ni-NTA, SourceQ flowthrough)

For series [1], the target named is B7. As to the kind of experiment: ITC; VP-ITC, 25 °C; ITC buffer (20 mM Hepes pH 7.5, 400 mM NaCl, 1 mM MgCl2, 5% w/v sucrose, 0.1 μM GTP) with 5 mM EGTA; the binder of each row in the syringe. The note with it: both partners purified. (Isothermal titration calorimetry measures the heat released or taken up as one component is titrated into another.)
The series “MIRO1_(1-591)” concerns the target B6. As to the kind of experiment: co-sedimentation; 5-30% glycerol gradient, proteins mixed at 4 μM each in 20 mM Hepes pH 7.5, 500 mM NaCl, 1 mM MgCl2, 1 mM CaCl2, 1 mM DTT, 0.1 μM GTP; 165,000g, 16 h, 4 °C; fractions on SDS-PAGE. The conditions noted are these: both partners purified.
Series [2] concerns the target B7. The series is described as follows: ITC; VP-ITC, 25 °C; ITC buffer (20 mM Hepes pH 7.5, 400 mM NaCl, 1 mM MgCl2, 5% w/v sucrose, 0.1 μM GTP) with 50 μM CaCl2; MIRO1_(177-591) in the syringe, TRAK1 construct in the cell. The note with it: both partners purified.
A further series addresses T1, MIRO1_(177-591) E208A (human, UniProt Q8IXI2 177-591, E208A).
T1 construct: source: E. coli ArcticExpress(DE3), purified (Ni-NTA, SourceQ flowthrough)
The series is described as follows: ITC; VP-ITC, 25 °C; ITC buffer (20 mM Hepes pH 7.5, 400 mM NaCl, 1 mM MgCl2, 5% w/v sucrose, 0.1 μM GTP) with 5 mM EGTA; the binder of each row in the syringe. The conditions noted are these: both partners purified.

Another series addresses T2, MIRO1_(177-591) E328A (human, UniProt Q8IXI2 177-591, E328A).
T2 construct: source: E. coli ArcticExpress(DE3), purified (Ni-NTA, SourceQ flowthrough)
The description is as above. The conditions noted are these: both partners purified.

Series [3] concerns the molecule itself. As to the kind of experiment: mass photometry; Refeyn TwoMP, 125-150 nM protein, 100 mM NaCl, 50 μM MgCl2, 50 μM GTP with 1 mM EGTA or 100 μM CaCl2.
For series [4], the target named is B3. The series is described as follows: ITC; VP-ITC, 25 °C; ITC buffer (20 mM Hepes pH 7.5, 400 mM NaCl, 1 mM MgCl2, 5% w/v sucrose, 0.1 μM GTP) with 50 μM CaCl2; MIRO1_(177-591) in the syringe, TRAK1 construct in the cell. The note with it: both partners purified.
Series [5] deals with B3. As to the kind of experiment: ITC; VP-ITC, 25 °C; ITC buffer (20 mM Hepes pH 7.5, 400 mM NaCl, 1 mM MgCl2, 5% w/v sucrose, 0.1 μM GTP) with 5 mM EGTA; the binder of each row in the syringe. The conditions noted are these: both partners purified.

B1: TRAK1_(394-434) (peptide, UniProt Q9UPV9 394-434, looked up)
peptide: PDITHQKRVFETVRNINQVVKQRSLTPSPMNIPGSNQSSAM
notes: Cloned into pMAL-c6T; also called TRAK1 peptide narrowly encompassing CR2; not shown: 6xHis-MBP, N-terminal, cleaved
As to B1, in the series with MIRO1_(177-591) [1], the binding result is on record as “binds”.

B2: TRAK1_(99-532) (domain or fragment, human, UniProt Q9UPV9 99-532, looked up)
chain: AERVGQMTKTYNDIDAVTRLLEEKERDLELAARIGQSLLKKNKTLTERNELLEEQVEHIREEVSQLRHELSMKDELLQFYTSAAEESEPESVCSTPLKRNESSSSVQNYFHLDSLQKKLKDLEEENVVLRSEASQLKTETITYEEKEQQLVNDCVKELRDANVQIASISEELAKKTEDAARQQEEITHLLSQIVDLQKKAKACAVENEELVQHLGAAKDAQRQLTAELRELEDKYAECMEMLHEAQEELKNLRNKTMPNTTSRRYHSLGLFPMDSLAAEIEGTMRKELQLEEAESPDITHQKRVFETVRNINQVVKQRSLTPSPMNIPGSNQSSAMNSLLSSCVSTPRSSFYGSDIGNVVLDNKTNSIILETEAADLGNDERSKKPGTPGTPGSHDLETALRRLSLRRENYLSERRFFEEEQERKLQELAEKGE
notes: Cloned into pRSFDuet-1; codon-optimised synthetic cDNA; source: E. coli ArcticExpress(DE3), purified (Strep-Tactin, Ni-NTA)
Turning to B2, the binding result with MIRO1_(1-591) is reported as “binds”.
Take B3: the equilibrium dissociation constant (Kd) (usually the constant that tells how readily two partners part at equilibrium) with MIRO1_(177-591) [2] was determined as 2.76 µM; in the series with MIRO1_(177-591) [1], 8.77 µM. In addition, the binding result in the series with MIRO1_(177-591) E208A and with MIRO1_(177-591) E328A was “binds” throughout.

B4: MBP-TRAK1_(342-431) ^400KR^401 to AA (domain or fragment, human, UniProt Q9UPV9 342-431, looked up)
chain: EAQEELKNLRNKTMPNTTSRRYHSLGLFPMDSLAAEIEGTMRKELQLEEAESPDITHQAAVFETVRNINQVVKQRSLTPSPMNIPGSNQS
notes: source: E. coli ArcticExpress(DE3), purified (amylose, Strep-Tactin); not shown: MBP, N-terminal, kept
As to B4, in the series with MIRO1_(177-591) [1], the binding result is “binds”.

B5: MBP-MIRO1_(1-180) (domain or fragment, human, UniProt Q8IXI2 1-180, looked up)
chain: MKKDVRILLVGEPRVGKTSLIMSLVSEEFPEEVPPRAEEITIPADVTPERVPTHIVDYSEAEQSDEQLHQEISQANVICIVYAVNNKHSIDKVTSRWIPLINERTDKDSRLPLILVGNKSDLVEYSSMETILPIMNQYTEIETCVECSAKNLKNISELFYYAQKAVLHPTGPLYCPEEKE
notes: human MIRO1, residues 1-180 (nGTPase); Cloned into pMAL-c6T; also called nGTPase of MIRO1 fused to MBP; source: E. coli ArcticExpress(DE3), purified (Strep-Tactin, MonoQ); not shown: MBP, N-terminal, kept
Take B5: the binding result in series [3] was “binds”.
On the same count and under the same terms, for B6 the value was “binds”.
For the molecule B7, the stoichiometry N – broadly, a count of units in the complex or per binding partner – was 1.11 in the series with MBP-TRAK1_(342-431) [4] and 1.09 with MBP-TRAK1_(342-431) [5].

The values are drawn from publication PMC10746525, “Interaction between the mitochondrial adaptor MIRO and the motor adaptor TRAK” (The Journal of Biological Chemistry, 2023).
